In patent US20260042834A1 (HBM ALPHA THERAPEUTICS, published 2026):
Several values for one entry are separate records, joined by “and”; a condition that tells them apart may be missing. Equal values may be shown once.

T1: corticotropin-releasing hormone (CRH) peptide (human and mouse, not fully specified)
T1 peptide: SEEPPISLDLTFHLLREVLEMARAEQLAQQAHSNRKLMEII

T2: biotinylated CRH (human and mouse, not fully specified; biotinylated, position not stated)
T2 construct: also called Biotin-CRH; biotin-labeled CRH
T2 peptide: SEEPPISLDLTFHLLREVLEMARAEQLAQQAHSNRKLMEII

T3: CRH (NT Biotin) (human and mouse, not fully specified; biotin at the N-terminus)
T3 peptide: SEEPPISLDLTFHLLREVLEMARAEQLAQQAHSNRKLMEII

T4: CRH (CT Biotin) (human and mouse, C-terminal K-Biotin)
T4 construct: also called Peptide 4 (CRH-Biotin)
T4 peptide: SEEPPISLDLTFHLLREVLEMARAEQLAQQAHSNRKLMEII

T5: hUCN1 (NT Biotin) (human, UniProt P55089 83-122, biotin at the N-terminus)
T5 construct: also called human UCN1 (NT biotin)
T5 peptide (looked up): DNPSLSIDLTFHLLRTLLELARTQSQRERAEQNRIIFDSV

T6: N-Terminal CRH (human and mouse, C-terminal K-Biotin)
T6 construct: also called N-Ter-CRH (CT-Bion)
T6 peptide: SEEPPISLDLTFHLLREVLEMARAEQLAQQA

T7: human UCN2 peptide (human, UniProt Q96RP3 72-109, limits assumed, not fully specified; biotin at N- or C-terminus in the ELISA)
T7 construct: also called hUCN2; hUCN2 (NT Biotin)
T7 peptide (looked up): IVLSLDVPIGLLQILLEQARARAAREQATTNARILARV

T8: human UCN3 peptide (human, UniProt Q969E3 120-157, not fully specified; biotin at N- or C-terminus in the ELISA)
T8 construct: also called hUCN3; hUCN3 (NT Biotin)
T8 peptide (looked up): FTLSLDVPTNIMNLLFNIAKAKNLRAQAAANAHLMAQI

T9: hUCN1 (CT Biotin) (human, UniProt P55089 83-122, biotin at the C-terminus)
T9 construct: also called human UCN1 (CT biotin)
T9 peptide (looked up): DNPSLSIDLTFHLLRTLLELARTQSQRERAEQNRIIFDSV


Key:
[1] = target: T1, corticotropin-releasing hormone (CRH) …; test: cell-based or functional assay
biotinylated CRH [2] = target: T2, biotinylated CRH; test: Octet BLI, biotinylated CRH on SA sensor
CRH (NT Biotin) = target: T3, CRH (NT Biotin); test: ELISA, biotin peptide on streptavidin plate
Description: (§1) Streptavidin (Thermo, Cat: 21125) was diluted in PBS to a concentration of 2 μg/ml. 100 μl of diluted streptavidin was added per well to ELISA microplates, and the plates were incubated overnight at 4° C. […] 100 μL of 3,3′,5,5′-tetramethylbenzidine (TMB) substrate (Biopanda, Cat: TMB-S-003) was added, and the plates were incubated at room temperature for 15 minutes. 100 μL of ELISA stopping solution (Solarbio, Cat #: C1058) was added to terminate the reaction, and the optical density at 450 nm (OD450 nm) was determined by an ELISA plate reader (Molecular Devices, Spectra max 384 plus).

CRH (CT Biotin) = target: T4, CRH (CT Biotin); test: ELISA, biotin peptide on streptavidin plate
Description: as §1

hUCN1 (NT Biotin) = target: T5, hUCN1 (NT Biotin); test: ELISA, biotin peptide on streptavidin plate
Description: as §1

N-Terminal CRH = target: T6, N-Terminal CRH; test: ELISA, biotin peptide on streptavidin plate
Description: as §1

human UCN2 peptide [3] = target: T7, human UCN2 peptide; test: ELISA on streptavidin-captured hUCN2 (NT biotin) and hUCN2 (CT biotin), mAb at 100 nM and 10 nM, OD450
Description: (§2) Streptavidin (Thermo, Cat: 21125) was diluted in PBS with a concentration of 2 μg/mL. 100 μL of diluted streptavidin was added per well to ELISA microplates, and the plates were incubated overnight at 4° C. Plates were blocked with ELISA blocking solution (containing 2% w/v BSA, 0.05% (v/v) Tween-20, pH 7.4 PBS buffer) at 37° C. for 1 hour, and then incubated with either 1 μg/mL hUCN1 (NT Biotin), hUCN1 (CT Biotin), hUCN2 (NT Biotin), hUCN2 (CT Biotin), hUCN3 (NT Biotin), or hUCN3 (CT Biotin) for 1 hour at 37° C. […] 100 μl of TMB Substrate (Biopanda, Cat: TMB-S-003) was added, and the plates were incubated at room temperature for 15 minutes. 100 μL of ELISA stopping solution (Solarbio, Cat #: C1058) was then added to terminate the reaction, and the OD450 nm was determined by an ELISA plate reader (Molecular Devices, Spectra max 384 plus).

human UCN3 peptide [4] = target: T8, human UCN3 peptide; test: ELISA on streptavidin-captured hUCN3 (NT biotin) and hUCN3 (CT biotin), mAb at 100 nM and 10 nM, OD450
Description: as §2

biotinylated CRH [5] = target: T2, biotinylated CRH; test: competitive ELISA, coated 1st mAb; competitor hIgG1
Description: (§3) For epitope binding, a competitive ELISA was performed. Specifically, 1 μg/ml of capture antibody, 100 μl/well, was coated on a 96 well-plate at 4° C. overnight. Plates were blocked with ELISA blocking solution (containing 2% w/v BSA, 0.05% (v/v) Tween-20, pH 7.4 PBS buffer) at 37° C. for 1 hour. […] Subsequently, plates were washed and incubated with Streptavidin-Peroxidase (SIGMA, Cat: 52438-250UG) at 37° C. for 1 hour. 100 μL of 3,3′,5,5′-tetramethylbenzidine (TMB) substrate (Biopanda, Cat: TMB-S-003) was added, and the plates were incubated at room temperature for 15 minutes. 100 μL of ELISA stopping solution (Solarbio, Cat #: C1058) was added to terminate the reaction, and the optical density at 450 nm (OD450 nm) was determined by an ELISA plate reader (Molecular Devices, Spectra max 384 plus).

biotinylated CRH [6] = target: T2, biotinylated CRH; test: competitive ELISA, coated 1st mAb; competitor PR004290
Description: as §3

biotinylated CRH [7] = target: T2, biotinylated CRH; test: competitive ELISA, coated 1st mAb; competitor PR005660
Description: as §3

biotinylated CRH [8] = target: T2, biotinylated CRH; test: competitive ELISA, coated 1st mAb; competitor PR006148
Description: as §3

biotinylated CRH [9] = target: T2, biotinylated CRH; test: competitive ELISA, coated 1st mAb; competitor PR006152
Description: as §3

biotinylated CRH [10] = target: T2, biotinylated CRH; test: competitive ELISA, coated 1st mAb; competitor PR301777
Description: as §3

biotinylated CRH [11] = target: T2, biotinylated CRH; test: competitive ELISA, coated 1st mAb; competitor PR302050
Description: as §3

biotinylated CRH [12] = target: T2, biotinylated CRH; test: competitive ELISA, coated 1st mAb; competitor PR302055
Description: as §3

biotinylated CRH [13] = target: T2, biotinylated CRH; test: competitive ELISA, coated 1st mAb; competitor PR302064
Description: as §3

biotinylated CRH [14] = target: T2, biotinylated CRH; test: competitive ELISA, coated 1st mAb; competitor PR302069
Description: as §3

hUCN1 (CT Biotin) = target: T9, hUCN1 (CT Biotin); test: ELISA, biotin peptide on streptavidin plate
Description: as §1

human UCN2 peptide [15] = target: T7, human UCN2 peptide; test: ELISA on streptavidin-captured hUCN2 (NT biotin) and hUCN2 (CT biotin), mAb at 100 nM and 10 nM; axis labelled RLU, scale 0-4
Description: as §2

human UCN3 peptide [16] = target: T8, human UCN3 peptide; test: ELISA on streptavidin-captured hUCN3 (NT biotin) and hUCN3 (CT biotin), mAb at 100 nM and 10 nM; axis labelled RLU, scale 0-4
Description: as §2

Binder	CHO-CRE-hCRHR1 0.5 nM CRH IC50 [1]	Kd (biotinylated CRH [2])	EC50 (CRH (NT Biotin))	EC50 (CRH (CT Biotin))	EC50 (hUCN1 (NT Biotin))	EC50 (N-Terminal CRH)	binding result (human UCN2 peptide [3])	binding result (human UCN3 peptide [4])	koff (biotinylated CRH [2])	kon (biotinylated CRH [2])	% Inhibition (biotinylated CRH [5])	% Inhibition (biotinylated CRH [6])	% Inhibition (biotinylated CRH [7])	% Inhibition (biotinylated CRH [8])	% Inhibition (biotinylated CRH [9])	% Inhibition (biotinylated CRH [10])	% Inhibition (biotinylated CRH [11])	% Inhibition (biotinylated CRH [12])	% Inhibition (biotinylated CRH [13])	% Inhibition (biotinylated CRH [14])	further results
PR005660 (antibody, human IgG1, kappa, V domains shown, PTM-removal variant of PR004290) VH: EVQLVESGGVLVQPGGSLRLSCAASGFTFSSYWMTWVRQAPGKGLEWVANIKQEGSEKYYVDSVKGRFTISRDNAKNSLFLQMNSLRAEDTAVYYCARTLIFDYWGQGTLVTVSS VL: DIVMTQSPLSLPVTPGEPASISCRSSQSLLHSTGYQSLEWYLQKPGQSPQLLIYLGSNRASGVPDRFSGSGSGTDFTLKISRVEAEDVGIYYCMQTLQTPITFGQGTRLEIKR	10.3 nM	0.12 nM and 0.0409 nM	0.028 nM	0.054 nM	9.37 nM	0.076 nM	no binding (tested: 100 nM)	no binding (tested: 100 nM)	–	–	–	–	–	–	–	–	–	–	–	–	–
PR302050 (antibody, human IgG1, kappa, V domains shown, Humanized variant of PR301777) VH: EMQLVESGGGLVQPGGSLKLSCAASGFTFSNYWMNWVRQASGKGLEWVAEIRLKSNNYATHYAESVKGRFTISRDDSKSTVYLQMNSLKTEDTAVYYCTVGTLVYWGQGTLVTVSS VL: DIVLTQSPDSLAVSLGERATINCRASQSVSTSTYNYMHWFQQKPGQPPKLLIKFASNLESGVPDRFSGSGSGTDFTLTISSLQAEDTAVYYCQHSWEIPYTFGQGTKLEIKR	–	< 0.001 nM	–	–	–	–	–	–	< 1e-07 s⁻¹	470000 M⁻¹ s⁻¹	0%	94%	94%	95%	96%	94%	94%	94%	95%	94%	–
PR302055 (antibody, human IgG1, kappa, V domains shown, Humanized variant of PR301777) VH: EMQLVESGGGLVQPGGSLKLSCAASGFTFSNYWMNWVRQASGKGLEWVAEIRLKSNNYATHYAESVKGRFTISRDDSKSTVYLQMNSLKTEDTAVYYCTVGTLVYWGQGTLVTVSS VL: DIQLTQSPSSLSASVGDRVTITCRASQSVSTSTYNYMHWFQQKPGKAPKLLIKFASNLESGVPSRFSGSGSGTDFTLTISSLQPEDTATYYCQHSWEIPYTFGQGTKLEIKR	–	–	–	–	–	–	–	–	–	–	2%	94%	94%	95%	95%	94%	95%	95%	95%	95%	–
PR302064 (antibody, human IgG1, kappa, V domains shown, Humanized variant of PR301777) VH: EMQLVESGGGLVKPGGSLRLSCAASGFTFSNYWMNWVRQAPGKGLEWVAEIRLKSNNYATHYAESVKGRFTISRDDSKSTVYLQMNSLKTEDTAVYYCTVGTLVYWGQGTLVTVSS VL: DIVLTQSPDSLAVSLGERATINCRASQSVSTSTYNYMHWFQQKPGQPPKLLIKFASNLESGVPDRFSGSGSGTDFTLTISSLQAEDTAVYYCQHSWEIPYTFGQGTKLEIKR	0.531 nM and 0.664 nM	< 0.001 nM	0.03 nM	0.026 nM and 0.023 nM	0.118 nM and 0.142 nM	0.022 nM	–	–	–	–	1%	93%	94%	94%	94%	94%	95%	95%	95%	95%	EC50 (hUCN1 (CT Biotin)): 0.208 nM and 0.256 nM; binding result (human UCN2 peptide [15]): no binding (tested: 100 nM); binding result (human UCN3 peptide [16]): no binding (tested: 100 nM)

Further lines, with some results ahead:

CHO-CRE-hCRHR1 0.5 nM CRH IC50 [1]	Kd (biotinylated CRH [2])	EC50 (CRH (NT Biotin))	EC50 (CRH (CT Biotin))	EC50 (hUCN1 (NT Biotin))	EC50 (N-Terminal CRH)	binding result (human UCN2 peptide [3])	binding result (human UCN3 peptide [4])	koff (biotinylated CRH [2])	kon (biotinylated CRH [2])	% Inhibition (biotinylated CRH [5])	% Inhibition (biotinylated CRH [6])	% Inhibition (biotinylated CRH [7])	% Inhibition (biotinylated CRH [8])	% Inhibition (biotinylated CRH [9])	% Inhibition (biotinylated CRH [10])	% Inhibition (biotinylated CRH [11])	% Inhibition (biotinylated CRH [12])	% Inhibition (biotinylated CRH [13])	% Inhibition (biotinylated CRH [14])	Binder	further results
–	–	–	–	–	–	–	–	–	–	0%	93%	94%	95%	94%	94%	95%	95%	95%	95%	PR302069 (antibody, human IgG1, kappa, V domains shown, Humanized variant of PR301777) VH: EMQLVESGGGLVKPGGSLRLSCAASGFTFSNYWMNWVRQAPGKGLEWVAEIRLKSNNYATHYAESVKGRFTISRDDSKSTVYLQMNSLKTEDTAVYYCTVGTLVYWGQGTLVTVSS VL: DIQLTQSPSSLSASVGDRVTITCRASQSVSTSTYNYMHWFQQKPGKAPKLLIKFASNLESGVPSRFSGSGSGTDFTLTISSLQPEDTATYYCQHSWEIPYTFGQGTKLEIKR	–
2.12 nM	0.0551 nM	0.032 nM	0.032 nM	0.078 nM	0.028 nM	no binding (tested: 100 nM)	no binding (tested: 100 nM)	8.48e-06 s⁻¹	154000 M⁻¹ s⁻¹	–	–	–	–	–	–	–	–	–	–	PR302309-11 (antibody, human IgG1, kappa, V domains shown, Humanized variant of PR302309) VH: QIQLVQSGSELKKPGASVKVSCKASGYTFTNYGMNWVRQAPGQGLEWMGWINTYTGEPIYTDDFKGRFVFSLDTSVSTAYLQISSLKAEDTAVYYCSRSTMITTGGVFAYWGQGTLVTVSS VL: DIVMTQTPLSSPVTLGQPASISCRSSQTIVHSDGNTYLEWLQQRPGQPPRLLIYKVSNRFSGVPDRFSGSGAGTDFTLKISRVEAEDVGVYYCFQGSHVPWTFGGGTKVEIKR	EC50 (hUCN1 (CT Biotin)): 0.451 nM
